# Measurements published in the nanobody polyreactivity screen of Harvey et al. (2022).
# Assay: yeast display, Sf9 membrane polyspecificity reagent, FACS + sequencing; frameworks hold sequencing errors
# Outline: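 Genes from sorted yeast were amplified by colony PCR, read by MiSeq 2 × 250 sequencing and filtered on CDR length. These cells carried a synthetic nanobody library in Saccharomyces cerevisiae BJ5465 and were sorted by FACS into low and high (top ~1%) gates on anti-HA and streptavidin fluorescence. Polyreactivity is labelled according to the gate of origin.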
row,Sequence,polyreactivity (PSR sort gate)
1,QVQLVESGGGLVQAGGSLRLSCAASGRIFRNYAMGWYRQAPGKERELVAAISTRSGSTYYADSVKGRFTISRDNAKNTVYLQMNSLKPEDTAVYYCNKVSVGRYYALYYWGQGTKVTVSS,high polyreactivity
2,QVQLVESGGGLVQAGGSLRLSCAASGRIFRNYGMGWYRQAPGKERELVATITWTGGSTFYADSVKGRFTISRDNAKNTVYLQMNSLKPEDTAVYYCAAEWHRLIYFSPRYDFDYWGQGTQVTVSS,low polyreactivity
3,QVQLVESGGGLVQAGGSLRLSCAASGRIFRPNAMGWYRPAPGKERELVAAISYSGATTYYADSVKGRFTISRDNAKNTVYLQMNSLKPEVTAVYYCAAGGTSGQEFGYWGQGTQVTVSS,low polyreactivity
4,QVQLVESGGGLVQAGGSLRLSCAASGRIFRRNAMGWYRQAPGKERELVAGIDSSGGSTYYADSVKGRFTISRDNAKNSVYLQMNSLKPEDTAVYYCNAVGYSQGYDYWGQGTQVTVSS,high polyreactivity
5,QVQLVESGGGLVQAGGSLRLSCAASGRIFRRYAMGWYRQAPGKEREFVAAISTSGGSTYYADSVKGRFTISRDNAKNTVYLQMNSLKPEDTAVYYCAKRFIYGRYNYWGQGTQVTVSS,high polyreactivity
6,QVQLVESGGGLVQAGGSLRLSCAASGRIFRRYAMGWYRQAPGKERELVAAISSRGGRTYYADSVKGRFTISRDNAKNTVYLQMNSLKPEETAVYYCNARSFRWCRWLRLPFNYWGQGTQVTVSS,high polyreactivity
7,QVQLVESGGGLVQAGGSLRLSCAASGRIFRRYAMGWYRQAPGKERELVAAISVTGGRTYYADSVKGRFTISRDNAKNTVYLQMNSLKPEDTAVYYCNTLQYQERYAYDYWGQGTQVTVSS,high polyreactivity
8,QVQLVESGGGLVQAGGSLRLSCAASGRIFRRYAMGWYRQAPGKERELVASISSGGSTNYADSVKGRFTISRDNAKNTVYLQMNSLKPEDTAVYYCAAAYPWQTRYSSPYYYWGQGTQVTVSS,high polyreactivity
9,QVQLVESGGGLVQAGGSLRLSCAASGRIFRSIAMGWYRQSPGKERELVAVINSDDSTYYADSVKGRFTISRDNAKNTVYLQMNSLKPEDTAVYYCAAEPQYTRHMDSWGQGTQVTVSS,low polyreactivity
10,QVQLVESGGGLVQAGGSLRLSCAASGRIFRSNAMGWYRQAPGKERELVATITRSGGSTYYADSVKGRFTISRDNAKNTVYLQMNSLKPEDTAVYYCNAVFGSAYRAQRIMGYWGQGTQVTVSS,high polyreactivity
11,QVQLVESGGGLVQAGGSLRLSCAASGRIFRSNAMGWYRQSPGKESELVAAITWRGRTYYADSVKGRFTISRDNAKNTVYLQMNSLKPEDTAVYYCNAYVRYGYDYWGHGTQVTVSS,high polyreactivity
12,QVQLVESGGGLVQAGGSLRLSCAASGRIFRSYVMGWYRQAPGKERELVAVISKNGGTTYYADSVKGRFTISRDNAKNTVYFQRNSLKPEDTAVYYCAARRLGYYRKVKELDYWGQGTQVTVSS,high polyreactivity
13,QVQLVESGGGLVQAGGSLRLSCAASGRIFRTNAMGWYRQAPGKEREFVAAISKDGGRTYYADSVKGRFTISRDNAKNTVYLQMNSLKPEDTAVYYCNVLVKHSTTTYSTYDYWGQGTQVTVSS,high polyreactivity
14,QVQLVESGGGLVQAGGSLRLSCAASGRIFRTYAMGWYRQAPGKERELVAAITWSGGSTYYADSVKGRFTISRDNAKNTVYLQMNSLKPEDTAVYYCNALTPGYRIYDYWGQGTQVTVSS,high polyreactivity
15,QVQLVESGGGLVQAGGSLRLSCAASGRIFRTYAMGWYRQAPGKERELVAGITWRGTSTYYADYVKGRFTISRDNAKNTVYLQLNSLKPEDTAVYYCAAEWKGYYVHDYWGQGTQVTVSS,high polyreactivity
16,QVQLVESGGGLVQAGGSLRLSCAASGRIFRVYAMGWYRQAPGKERELVAAIRWTGGSTYYADSVKGRFKISRDNAKNTVYLQMNSLKPEDTAVYYCAAGRYYSDGSRTIYDYWGQGTQVTVSS,low polyreactivity
17,QVQLVESGGGLVQAGGSLRLSCAASGRIFRVYTMGWYIQAPGKERELVAAISRGGTTTYADSVKGRFTISRDNAKNTVYLQMNSLKPEYTAVYYCNARGWFRGEFDYWGQGTQVTVSS,high polyreactivity
18,QVQLVESGGGLVQAGGSLRLSCAASGRIFRWYAMGWYRQAPGKERELVASISSGGSTNYADSVKGRFTISRDNAKNTVYLQLNSLKPEDTAVYYCAADFATPGPAYDYWGEGTQVTVSS,low polyreactivity
19,QVQLVESGGGLVQAGGSLRLSCAASGRIFRWYAMGWYRQAPGKERELVASITWNGGSTYYADSVKGRFTISRDNAKNTVYLQMNSLKPEDTAVYYCAVAFYRGPEMGYWGQGTQVTVSS,high polyreactivity
20,QVQLVESGGGLVQAGGSLRLSCAASGRIFRWYAMGWYRQAPGKERELVATITRSGGSTYCADSVKGRFTISRDNAKNTVYLQMNSLKPEDTAVYYCAARWRLTPSWLPYVQSSAGYDYWGQGTQVTVSS,high polyreactivity
21,QVQLVESGGGLVQAGGSLRLSCAASGRIFRWYPMGWYRQAPGKESELDATISSTGGSTYYADSVKGRFTISRDNAKNTVYIQMNSLKPEVTAVYYCNAVVYGIFLYAWYDYWGQGTQVTVSS,low polyreactivity
22,QVQLVESGGGLVQAGGSLRLSCAASGRIFRWYTMGWYRQAPGKEREFVAAITWSDTSTSYADSVKGPFTISRDNAKNTVYLQMNSLKPEDTAVYYCAAPTHLHGHGNQNEFYYWGQGTQVTVSS,low polyreactivity

row,Sequence,polyreactivity (PSR sort gate)
1,QVQLVESGGGLVQAGGSLRLSCAASGRIFRYNAMGWYRQAPGKERELVAAISQSGGSTYYADSVKGRFTISRDNAMNTVYLQMNSLKPEDTAVYYCGADNYFLGDEDYWGQGTQGTVSS,high polyreactivity
2,QVQLVESGGGLVQAGGSLRLSCAASGRIFRYNAMGWYRQAPGKERELVAAISRGGSSTYYADSVKGRFTISRDNAKNTVYLQMNSLKPEDTAVYYCNARSVVREFNYWGQGTQVTVSS,high polyreactivity
3,QVQLVESGGGLVQAGGSLRLSCAASGRIFRYNAMGWYRQAPGKERELVAAISWSGGSTYYADSVKGRFTISRDNAKNTVYLQMNSLKPEDTAVYYCNARYRYSVTGYDYWGQGTQVTVSS,high polyreactivity
4,QVQLVESGGGLVQAGGSLRLSCAASGRIFRYNAMGWYRQAPGKERELVAAITNGGSTNYADSVKGRFTISRDNAKNTVYLQMNSLKPEDTAVYYCAAEGNGYLVSTWWVRYEYWGQGTQVTVSS,low polyreactivity
5,QVQLVESGGGLVQAGGSLRLSCAASGRIFRYYAMGWFRQAPGKERELVASISRRGGSTNYADSVKGRFTISRDNAKNTVDLQMNSLKPEDTAVYYCNAENSSPRGLYNYWGQGTQVTVSS,high polyreactivity
6,QVQLVESGGGLVQAGGSLRLSCAASGRIFRYYAMGWSRQAPGKERELVADISRRGGSTYYADSVKGRFTISRDNAKNTVYLQMNSLKPEDTAVYYCNARWYRTGSTYHEDYWGQGTQVTLSS,high polyreactivity
7,QVQLVESGGGLVQAGGSLRLSCAASGRIFRYYAMGWYRQAPGKERELVAAISSGGSTYYADSVKGRFTISRDNAKNTVYLQMNSLKQEDTAVYYCAADRRYSYNWGHGTQVTVSS,high polyreactivity
8,QVQLVESGGGLVQAGGSLRLSCAASGRIFRYYAMGWYRQAPGKERELVAAISSSGGSTYYADSVKGRFTISRDNAKNTVDLQMNSLKPEDTAVYYCAAKYSRRSSVSYYYWGQGTQVTVSS,high polyreactivity
9,QVQLVESGGGLVQAGGSLRLSCAASGRIFRYYAMGWYRQAPGKERELVAAISYSTGGTYYADSVKGRFTISRDNAKNTVYLQMNSLIPEDTAVYYCAARGPLDRYGYWGQGTQVTVSS,high polyreactivity
10,QVQLVESGGGLVQAGGSLRLSCAASGRIFRYYAMGWYRQAPGKERELVAAITRGGSTNYADSVKGRFTISRDNAKNTVYLLMNSLKPEVTAVDYCNAPYWKSRFRAYYHWGQGTQVTVSS,high polyreactivity
11,QVQLVESGGGLVQAGGSLRLSCAASGRIFRYYAMGWYRQAPGKERELVAAITRGGSTNYADSVKGRFTISRDNAKNTVYLQMNSLKPEDSAVFYCATRESCYPRWMDYWGQGTQVTVSS,high polyreactivity
12,QVQLVESGGGLVQAGGSLRLSCAASGRIFRYYAMGWYRQAPGKERELVARITSGGSTYYADSVKGRFTLSRDNAKNTVYLQMNSLKPEDTAVYYCAAETTRWHPWYDYWGQGTQVTVSS,high polyreactivity
13,QVQLVESGGGLVQAGGSLRLSCAASGRIFRYYAMGWYRQAPGKERELVASIARRGGSTNYADSVKGRFTISRDNAKNTVYVQMNSLKPEDTAVYYINAENWSPRGLYNYWGQGTQVTLSS,high polyreactivity
14,QVQLVESGGGLVQAGGSLRLSCAASGRIFRYYAMGWYRQAPGKERELVATISRSGGSTFYADSVKGRFTISRDNGKNPVYLQMNSLKPEDSAVYYCNARYQTGCYGYWGQGTQVTVSS,high polyreactivity
15,QVQLVESGGGLVQAGGSLRLSCAASGRIFRYYAMGWYRQAPGKESELVAAINSGGSTKYADSVKGRFTISRDNAKNTVYLQMNSLKPEDTAVYYCNKDHAFSRYWYGGFDYWGQGTQVTVSS,high polyreactivity
16,QVQLVESGGGLVQAGGSLRLSCAASGRIFRYYAMGWYRQAPGKESELVAAITASGGSTYYADSVKGRFTISRDNAKNTVYLQMNSLKPEDTAVYYCATEYVVYRSWVPKYGYWGQGTQVTVSS,high polyreactivity
17,QVQLVESGGGLVQAGGSLRLSCAASGRIFRYYAMGWYRQAPPKERELVAAIRWSGGRTYYADSVKGRFTISRDNAKNTVYLQMNSLKPEDTAVYYCAADSPYKMDYWGQGTQVTVSS,high polyreactivity
18,QVQLVESGGGLVQAGGSLRLSCAASGRIFRYYAMGWYRQATGKERELVAAISRSGGSTYYADSVKGRFTISRDNAKNTVYLQMNSLKPEDTAVYYCNAQWRSTDPYPPGYDYWGQGTQVTVSS,high polyreactivity
19,QVQLVESGGGLVQAGGSLRLSCAASGRIFRYYPMGWYRQATGKERELVAAITASGGSTYYADSVKGRFTISRDNAKNTVYLQMNSLKPEDTAVYYCAARVAQVAYPDGYWGQGTQVTVSS,high polyreactivity
20,QVQLVESGGGLVQAGGSLRLSCAASGRIFRYYTMGWYRQAPGKERELVAAISGRGGRTYYADSVKGRFTISRDNAKNTVYLQMNSLKPEDTAVYYCNAYDHPIYRLDYWGQGTQVTVSS,high polyreactivity
21,QVQLVESGGGLVQAGGSLRLSCAASGRIFSANAMGWYRQAPRKERELVAGIDSGGSTNYADSVKGRFTISRDNSKNTVYLQMNSLKPEDTAVYYCNAEDHKYEYDSWGQGTQVTVSS,low polyreactivity
